The target of data set [1] is T1, SCAF4-CID (human, UniProt O95104 1-139).
T1 sequence: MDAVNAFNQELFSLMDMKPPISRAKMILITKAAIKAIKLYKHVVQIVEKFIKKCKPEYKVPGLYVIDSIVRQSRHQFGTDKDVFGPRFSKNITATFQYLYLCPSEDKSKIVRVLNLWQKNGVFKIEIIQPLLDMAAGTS
In words: SPR. In general terms: Surface plasmon resonance follows binding to a sensor surface in real time, without labels.

Data set [2] addresses T2, SCAF8-CID (human, UniProt Q9UPN6 1-139).
T2 sequence: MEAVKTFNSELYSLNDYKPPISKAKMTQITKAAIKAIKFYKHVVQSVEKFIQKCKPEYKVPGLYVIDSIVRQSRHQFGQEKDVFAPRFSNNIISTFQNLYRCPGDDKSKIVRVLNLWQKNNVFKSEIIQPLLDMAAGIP
In words: competition FP.

In data set [3] the target is T1, SCAF4-CID. As to the kind of experiment: competition FP.
In data set [4] the target is T2, SCAF8-CID. In words: SPR.
For data set [5], the target named is T2, SCAF8-CID. In words: SPR. This is another data set of the same source.
In data set [6] the target is T3, WDR5 (UniProt P61964 22-334). As to the kind of experiment: competition FP.
Data set [7] concerns the target T3, WDR5. In words: SPR.
The target in data set [8] is WDR5 L240K (UniProt P61964 22-334, L240K). As to the kind of experiment: fluorescence polarization. On the technique in general: Fluorescence polarisation rises when a labelled molecule tumbles more slowly, as on binding a larger partner.
Data set [9] deals with T3, WDR5. In words: fluorescence polarization.
Data set [10] deals with T4, SCAF4-CID R112A (human, UniProt O95104 1-139, R112A).
T4 sequence: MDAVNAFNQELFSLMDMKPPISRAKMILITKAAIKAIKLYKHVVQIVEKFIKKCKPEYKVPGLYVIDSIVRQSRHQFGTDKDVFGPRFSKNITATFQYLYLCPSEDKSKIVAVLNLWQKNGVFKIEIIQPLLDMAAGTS
In words: fluorescence polarization.

In data set [11] the target is T1, SCAF4-CID. In words: fluorescence polarization.
The target in data set [12] is T5, SCAF4-CID R71A (human, UniProt O95104 1-139, R71A).
T5 sequence: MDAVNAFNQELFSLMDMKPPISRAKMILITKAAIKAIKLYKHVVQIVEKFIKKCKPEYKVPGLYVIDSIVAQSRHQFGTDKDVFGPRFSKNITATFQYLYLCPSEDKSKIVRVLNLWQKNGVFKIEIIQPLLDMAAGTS
In words: fluorescence polarization.

For data set [13], the target named is T6, SCAF4-CID R21A (human, UniProt O95104 1-139, R23A).
T6 sequence: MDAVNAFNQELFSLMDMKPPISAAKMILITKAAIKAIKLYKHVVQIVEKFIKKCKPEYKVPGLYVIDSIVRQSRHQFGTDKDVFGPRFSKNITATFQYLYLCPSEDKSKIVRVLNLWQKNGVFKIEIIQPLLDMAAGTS
In words: fluorescence polarization.

In data set [14] the target is T1, SCAF4-CID. As to the kind of experiment: competition FP. This is another data set of the same source.
The target of data set [15] is T2, SCAF8-CID. As to the kind of experiment: competition FP. This is another data set of the same source.

We go through nine molecules from doi:10.1101/2024.01.09.574928.

By Kd is commonly meant the equilibrium constant for the complex coming apart. High values mean lower affinity, low ones higher affinity. What is called IC50 is the concentration at which inhibition is half-maximal. The low end stands for greater potency, the high end for weaker potency.

Where two headings read alike, the source gives them in different places.

For the molecule GGGGTGGGGAG (ssDNA) [SRiApt-1 (SCAF4_F3_11nt)], the Kd came out at 58.4 ± 5.8 nM in data set [1] and 56.3 ± 7.42 nM in data set [4]. Also, the results for the IC50 in data set [2] and in [3] were 1500 ± 690 nM and 832 ± 303 nM, respectively.
For the molecule GGGTGGGA (ssDNA) [F1_8nt], in data set [1], binding was characterised by a dissociation constant (Kd) of 88.6 ± 15.1 nM. This molecule also gave an IC50 in [3] of 554 ± 106 nM.
With AGGTGGGT (ssDNA) [B2_8nt], the affinity in [1], expressed as Kd, was 297 ± 48.1 nM. In [3], this molecule showed a half-inhibitory concentration (IC50) of 1280 ± 742 nM.
TTAAAGGGGTGGGGAGTCAT (ssDNA) [SRiApt-3]: the Kd in data set [5] was determined as 69.9 ± 14 nM; in data set [1], 22.7 ± 1 nM. Also, the values for the 50% inhibitory concentration (IC50) in data set [2] and in data set [3] were 291 ± 19.7 nM and 285 ± 26.6 nM, respectively.
Molecule TGGTGGGA (ssDNA) [D1_8nt] registered an IC50 in data set [3] of 1270 ± 864 nM.
In [6], GGACCGGACC (ssDNA) [bivalent WDR5 lead] came in with an IC50 of 8500 ± 4250 nM.
On to GGGGGCTGGACCCCTCAACT (structured_DNA) [WMiApt-1], for which the Kd was determined as 138 ± 86.7 nM in data set [7] and 797 ± 95.2 nM in [9]. In data set [6], this molecule came in with an IC50 of 431 ± 134 nM. The binding result in data set [8] was “binds”.
Regarding CAGGTGGGTTC (ssDNA) [SRiApt-2 (F7_11nt_B)], the figures for the Kd in data set [5] and in [1] were 90.5 ± 25.8 nM and 73.8 ± 30.8 nM, respectively. In addition, the IC50 in [2] is 2690 ± 1430 nM; in [3], 400 ± 143 nM.
For GTGGG (ssDNA) [SCAF4_LS (D2_5nt)], the dissociation constant Kd in [5] amounted to 76.4 ± 7.33 nM; in data set [1], 140 ± 40.1 nM; in [10], 672 ± 171 nM; in data set [11], 189 ± 40.1 nM; in data set [12], 786 ± 491 nM; in data set [13], 416 ± 39.5 nM. Moreover, the IC50 in data set [14] came out at 2750 ± 682 nM; in data set [15], 1960 ± 240 nM.
